Laboratory results from US20180002415A1 (Chugai, published 2018).
Each block holds one binder with its values, some of them ahead of it.

Tests used:
[1] = molecular target: T1, recombinant cynomolgus monkey C5 (cynomolgus monkey, UniProt P01031 20-1676 (human entry), limits assumed); assay: SPR (Biacore), 37C, pH 7.4, Ab captured on ProA/G
T1 construct: also called cynoC5
T1 chain: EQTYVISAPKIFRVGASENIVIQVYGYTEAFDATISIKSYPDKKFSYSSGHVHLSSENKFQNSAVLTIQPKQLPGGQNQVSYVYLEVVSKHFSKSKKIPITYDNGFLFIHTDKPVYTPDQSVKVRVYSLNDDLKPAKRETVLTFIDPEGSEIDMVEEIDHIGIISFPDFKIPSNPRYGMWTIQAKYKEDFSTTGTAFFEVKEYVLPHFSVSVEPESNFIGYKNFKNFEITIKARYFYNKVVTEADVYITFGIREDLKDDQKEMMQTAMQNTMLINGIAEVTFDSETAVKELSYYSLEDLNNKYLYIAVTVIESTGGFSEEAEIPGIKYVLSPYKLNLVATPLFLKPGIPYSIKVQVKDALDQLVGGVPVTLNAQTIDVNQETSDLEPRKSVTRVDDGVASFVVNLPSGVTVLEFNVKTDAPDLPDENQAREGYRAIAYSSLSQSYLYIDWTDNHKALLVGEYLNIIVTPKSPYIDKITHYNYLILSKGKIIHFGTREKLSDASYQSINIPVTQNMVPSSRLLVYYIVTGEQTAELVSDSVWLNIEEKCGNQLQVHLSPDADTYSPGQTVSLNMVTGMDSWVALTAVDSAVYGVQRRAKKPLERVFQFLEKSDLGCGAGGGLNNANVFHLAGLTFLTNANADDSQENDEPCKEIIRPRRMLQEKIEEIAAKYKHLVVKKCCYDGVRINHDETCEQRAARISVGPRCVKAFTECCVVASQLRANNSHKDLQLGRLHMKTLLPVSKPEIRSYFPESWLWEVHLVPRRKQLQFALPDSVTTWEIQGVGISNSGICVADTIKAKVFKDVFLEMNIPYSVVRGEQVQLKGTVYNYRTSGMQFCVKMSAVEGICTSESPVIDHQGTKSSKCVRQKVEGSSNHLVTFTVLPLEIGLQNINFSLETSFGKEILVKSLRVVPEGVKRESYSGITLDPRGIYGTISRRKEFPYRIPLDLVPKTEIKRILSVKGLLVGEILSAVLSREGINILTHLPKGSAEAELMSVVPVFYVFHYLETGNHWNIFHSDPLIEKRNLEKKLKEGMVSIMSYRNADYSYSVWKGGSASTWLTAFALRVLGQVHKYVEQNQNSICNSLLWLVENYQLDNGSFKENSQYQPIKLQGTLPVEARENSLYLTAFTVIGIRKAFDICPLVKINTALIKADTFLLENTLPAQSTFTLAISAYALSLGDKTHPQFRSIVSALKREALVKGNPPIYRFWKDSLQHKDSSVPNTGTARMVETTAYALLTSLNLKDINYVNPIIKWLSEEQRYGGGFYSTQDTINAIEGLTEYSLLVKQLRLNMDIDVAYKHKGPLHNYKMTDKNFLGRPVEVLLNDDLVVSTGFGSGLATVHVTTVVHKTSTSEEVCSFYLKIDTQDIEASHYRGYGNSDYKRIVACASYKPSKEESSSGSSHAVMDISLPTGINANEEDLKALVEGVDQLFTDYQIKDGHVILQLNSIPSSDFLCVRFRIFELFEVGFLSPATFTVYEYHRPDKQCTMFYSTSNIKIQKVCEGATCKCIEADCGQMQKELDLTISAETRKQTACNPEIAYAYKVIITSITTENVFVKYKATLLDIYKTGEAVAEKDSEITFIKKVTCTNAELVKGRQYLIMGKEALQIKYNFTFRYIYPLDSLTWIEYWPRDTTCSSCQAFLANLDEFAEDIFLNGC
Method: To observe the cross-reactivity of anti-C5 antibodies against human C5 (hC5) and cynomolgus monkey C5 (cynoC5), BIACORE® kinetics analysis was performed.

321-500 [2] = molecular target: T2, 321-500; assay: summary drawing of the binding reactions to C5 beta-chain fragments
T2 construct: Expressed in E. coli
T2 GST fusion polypeptide: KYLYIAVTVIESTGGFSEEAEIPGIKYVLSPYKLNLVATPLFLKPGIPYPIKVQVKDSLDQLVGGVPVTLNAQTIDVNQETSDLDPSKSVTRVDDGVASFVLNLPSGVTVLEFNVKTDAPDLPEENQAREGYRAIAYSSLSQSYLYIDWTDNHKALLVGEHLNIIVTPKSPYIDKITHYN

481-660 = molecular target: T3, 481-660; assay: as above
T3 construct: Expressed in E. coli
T3 GST fusion polypeptide: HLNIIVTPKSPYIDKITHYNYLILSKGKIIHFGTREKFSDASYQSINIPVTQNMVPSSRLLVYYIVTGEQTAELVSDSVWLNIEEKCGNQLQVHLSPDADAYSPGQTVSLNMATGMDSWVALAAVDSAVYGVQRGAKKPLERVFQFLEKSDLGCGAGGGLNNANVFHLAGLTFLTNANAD

[3] = molecular target: T4, C5 peptide 33-108 fused to GST-tag (human, UniProt P01031 33-108); assay: as above
T4 construct: not shown: GST-tag (glutathione S-transferase); vector and linker not restated
T4 sequence (P01031 33-108): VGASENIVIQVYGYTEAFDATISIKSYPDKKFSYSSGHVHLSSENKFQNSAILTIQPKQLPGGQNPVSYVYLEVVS

[4] = molecular target: T5, C5 peptide 45-111 fused to GST-tag (human, UniProt P01031 45-111); assay: as above
T5 construct: not shown: GST-tag (glutathione S-transferase); vector and linker not restated
T5 sequence (P01031 45-111): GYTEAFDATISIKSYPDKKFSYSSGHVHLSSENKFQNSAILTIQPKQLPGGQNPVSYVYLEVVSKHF

[5] = molecular target: T6, C5 peptide 45-124 fused to GST-tag (human, UniProt P01031 45-124); assay: as above
T6 construct: not shown: GST-tag (glutathione S-transferase); vector and linker not restated
T6 sequence (P01031 45-124): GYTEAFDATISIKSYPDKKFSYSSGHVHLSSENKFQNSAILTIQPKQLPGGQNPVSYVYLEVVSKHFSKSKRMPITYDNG

[6] = molecular target: T7, C5 peptide 52-124 fused to GST-tag (human, UniProt P01031 52-124); assay: as above
T7 construct: not shown: GST-tag (glutathione S-transferase); vector and linker not restated
T7 sequence (P01031 52-124): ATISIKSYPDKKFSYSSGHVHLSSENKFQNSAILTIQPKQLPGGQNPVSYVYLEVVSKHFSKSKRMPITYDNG

[7] = molecular target: T8, C5 peptide 33-111 fused to GST-tag (human, UniProt P01031 33-111); assay: as above
T8 construct: not shown: GST-tag (glutathione S-transferase); vector and linker not restated
T8 sequence (P01031 33-111): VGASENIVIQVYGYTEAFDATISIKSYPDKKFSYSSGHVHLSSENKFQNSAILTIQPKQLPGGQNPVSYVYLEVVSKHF

161-340 = molecular target: T9, 161-340; assay: Western blot of E. coli lysates expressing GST-fused C5 beta-chain fragments
T9 construct: Expressed in E. coli
Method: (§1) Anti-C5 monoclonal antibodies (MAbs) were tested for binding to C5 β-chain-derived peptides in Western blot analysis. […] The E. coli samples were harvested after incubation with 1 mM Isopropyl β-D-1-thiogalactopyranoside (IPTG) for 5 hours at 37° C., and centrifuged at 20000×g for 1 min to obtain pellets.
T9 GST fusion polypeptide: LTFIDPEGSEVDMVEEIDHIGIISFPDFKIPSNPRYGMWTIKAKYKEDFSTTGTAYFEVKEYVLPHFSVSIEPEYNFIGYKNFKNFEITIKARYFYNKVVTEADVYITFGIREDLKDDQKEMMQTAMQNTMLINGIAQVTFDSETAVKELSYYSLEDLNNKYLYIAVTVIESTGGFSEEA

recombinant human C5 [8] = molecular target: T10, recombinant human C5 (human, UniProt P01031 20-1676); assay: SPR (Biacore), 37C, association at pH 7.4, dissociation at pH 5.8
T10 construct: Also used for the C5 of normal human serum in the functional rows; also called hC5; rhC5
Method: (§2) The kinetic parameters of anti-C5 antibodies against recombinant human C5 were assessed at 37° C. using BIACORE® T200 instrument (GE Healthcare) at three different conditions; (1) both association and dissociation were at pH7.4, (2) both association and dissociation were at pH5.8, and (3) association was at pH7.4 but dissociation was at pH5.8. ProA/G (Pierce) was immobilized onto a CM1 sensorchip using amine coupling kit (GE Healthcare) according to the recommended settings by GE Healthcare. Antibodies and analytes for condition (1) and (3) were diluted in ACES pH7.4 buffer (20 mM ACES, 150 mM NaCl, 1.2 mM CaCl₂, 0.05% Tween 20, 0.005% NaN₃) and for condition (2) they were diluted in ACES pH5.8 buffer (20 mM ACES, 150 mM NaCl, 1.2 mM CaCl₂, 0.05% Tween 20, 0.005% NaN₃). […] The surface was regenerated using 25 mM NaOH. Kinetic parameters at condition (1) and (2) were determined by fitting the sensorgrams with a 1:1 binding model and the dissociation rate at condition (3) was determined by fitting the sensorgrams with a 1:1 dissociation for MCK model using BIACORE® T200 Evaluation software, version 2.0 (GE Healthcare). pH dependency of all antibodies were shown as ratio of dissociation rate of condition (2) and (1).

recombinant human C5 [9] = molecular target: T10, recombinant human C5; assay: SPR (Biacore), ratio of dissociation rates of conditions (2) and (1)
Method: as §2

recombinant human C5 [10] = molecular target: T10, recombinant human C5; assay: SPR (Biacore), 37C, association and dissociation at pH 5.8, Ab on ProA/G
Method: as §2

recombinant human C5 [11] = molecular target: T10, recombinant human C5; assay: SPR (Biacore), 37C, association and dissociation at pH 7.4, Ab on ProA/G
Method: as §2

[12] = molecular target: recombinant MG1-MG2 domain of human C5 β-chain (human, UniProt P01031 20-225); assay: SPR (BIACORE T200, 37 C, pH7.4): antibody captured by ProA/G, MG1-MG2 domain injected (20 and 40 nM per paragraph 378; concentration of the curves not printed on the sheet)
Method: ProA/G (Pierce) was immobilized onto a CM4 sensorchip using amine coupling kit (GE Healthcare) according to the recommended settings by GE Healthcare. Antibodies and analytes were diluted into the respective running buffers, ACES pH7.4 and pH5.8 (20 mM ACES, 150 mM NaCl, 1.2 mM CaCl₂, 0.05% Tween 20, 0.005% NaN₃). […] The surface was regenerated using 25 mM NaOH. Kinetic parameters at both pH conditions were determined by fitting the sensorgrams with 1:1 binding model using BIACORE® T200 Evaluation software, version 2.0 (GE Healthcare).
The MG1-MG2 domain was injected at concentrations of 20 nM and 40 nM.

321-500 [13] = molecular target: T2, 321-500; assay: Western blot of E. coli lysates expressing GST-fused C5 beta-chain fragments
Method: as §1

B2: 305LO23-SG115 (antibody, human IgG1, V domains shown)
VH: QVQLVESGGGLVQPGGSLRLSCAASGFTVHSSYYMAWVRQAPGKGLEWVSGIFTGSGATYKAEWAKGRVTISKDTSKNQVVLTMTNMDPVDTATYYCASDAGYDYPTHAMHYWGQGTLVTVSS
VL: DIQMTQSPSSLSASVGDRVTITCRASQGISSSLAWYQQKPGQAPRLLIYGASTTQSGVPSRFSGSGSGTDFTLTISSLQPEDFATYYCQNTKVGSSYGNTFGGGTKVEIKR
notes: Modified human IgG1 CH SG115, human CL SK1
koff (recombinant human C5 [8]): 0.0173 s⁻¹
pH dependency (kd pH 5.8 / kd pH 7.4) (recombinant human C5 [9]): 20.2 fold
koff (recombinant human C5 [10]): 0.00855 s⁻¹
kon (recombinant human C5 [10]): 133000 M⁻¹ s⁻¹
koff (recombinant human C5 [11]): 0.000423 s⁻¹
kon (recombinant human C5 [11]): 1.53e+06 M⁻¹ s⁻¹

B3: eculizumab-F760G4 (antibody, human IgG4 S228P, kappa)
heavy: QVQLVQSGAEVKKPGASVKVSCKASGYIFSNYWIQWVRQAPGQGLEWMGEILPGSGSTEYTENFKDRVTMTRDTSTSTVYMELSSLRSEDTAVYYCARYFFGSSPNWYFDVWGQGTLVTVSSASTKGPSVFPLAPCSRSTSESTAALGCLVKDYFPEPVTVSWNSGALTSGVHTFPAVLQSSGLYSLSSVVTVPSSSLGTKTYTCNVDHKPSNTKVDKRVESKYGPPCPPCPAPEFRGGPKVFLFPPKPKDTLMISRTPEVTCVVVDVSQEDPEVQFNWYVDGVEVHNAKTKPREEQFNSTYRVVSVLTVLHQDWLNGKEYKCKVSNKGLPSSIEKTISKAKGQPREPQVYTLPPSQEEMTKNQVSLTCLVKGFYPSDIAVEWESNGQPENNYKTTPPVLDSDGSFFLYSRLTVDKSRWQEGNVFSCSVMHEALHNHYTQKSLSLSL
light: DIQMTQSPSSLSASVGDRVTITCGASENIYGALNWYQQKPGKAPKLLIYGATNLADGVPSRFSGSGSGTDFTLTISSLQPEDFATYYCQNVLNTPLTFGQGTKVEIKRTVAAPSVFIFPPSDEQLKSGTASVVCLLNNFYPREAKVQWKVDNALQSGNSQESVTEQDSKDSTYSLSSTLTLSKADYEKHKVYACEVTHQGLSSPVTKSFNRGEC
notes: EcuH VH fused to modified human IgG4 CH F760G4; EcuL VL fused to k0 light chain constant region
binding result [12]: no binding (tested: 40 nM (not printed on the sheet))

B4: 305LO20-SG422 (antibody, human IgG4)
heavy: QVQLVESGGGLVQPGGSLRLSCAASGFTVHSSYYMAWVRQAPGKGLEWVGAIFTGSGAEYKAEWAKGRVTISKDTSKNQVVLTMTNMDPVDTATYYCASDAGYDYPTHAMHYWGQGTLVTVSSASTKGPSVFPLAPCSRSTSGGTAALGCLVKDYFPEPVTVSWNSGALTSGVHTFPAVLQSSGLYSLSSVVTVPSSSLGTKTYTCNVDHKPSNTKVDKRVESKYGPPCPPCPAPEFRRGPKVFLFPPKPKDTLMISRTPEVTCVVVDVSHEDPEVKFNWYVDGVEVHNAKTKPREEQYNSTYRVVSVLTVLHQDWLNGKEYKCKVSNKGLPSSIEKTISKAKGQPREPQVYTLPPSREEMTKNQVSLTCLVKGFYPSDIAVEWESNGQPENNYKTTPPVLDSDGSFFLYSKLTVDKSRWQQGNVFSCSVLHEALHAHYTRKELSLSP
light: DIQMTQSPSSLSASVGDRVTITCRASQGISSSLAWYQQKPGQAPRLLIYGASETESGVPSRFSGSGSGTDFTLTISSLQPEDFATYYCQNTKVGSSYGNTFGGGTKVEIKRTVAAPSVFIFPPSDEQLKSGTASVVCLLNNFYPREAKVQWKVDNALQSGNSQESVTEQDSKDSTYSLSSTLTLSKADYEKHKVYACEVTHQGLSSPVTKSFNRGEC
notes: Modified human IgG4 CH SG422, human CL SK1
koff (recombinant human C5 [8]): 0.0155 s⁻¹
pH dependency (kd pH 5.8 / kd pH 7.4) (recombinant human C5 [9]): 17.3 fold
koff (recombinant human C5 [10]): 0.00815 s⁻¹
kon (recombinant human C5 [10]): 136000 M⁻¹ s⁻¹
koff (recombinant human C5 [11]): 0.00047 s⁻¹
kon (recombinant human C5 [11]): 1.35e+06 M⁻¹ s⁻¹

Other lines, results leading:

Kd [1]: 7.68 nM
binding result (321-500 [2]): no binding
binding result (481-660): no binding
binding result [3]: no binding
binding result [4]: no binding
binding result [5]: no binding
binding result [6]: no binding
binding result [7]: no binding
binding result (161-340): no binding
B1: CFA0307 (antibody, V domains shown)
VH: QSLEESGGGLVKPGASLTLTCKASGIDFSNFYYICWVRQAPGKGLDLIACIYTVSGYTYYASWAKGRLTISKTSSTTVTLQMTSLTAADTATYFCARDLHAGITNLWGPGTLVTVSS
VL: AIEMTQTPFSVSAAVGGTVTIKCQASQNIYSNLAWYQQKPGQRPKLLIYGASNLESGVPSRFKGSGSGTEYTLTISDLECADAATYYCLQGYSYSNVDDAFGGGTEVVVK
notes: Chimeric, rabbit V regions; also called CFA0307-F760G4

Kd [1]: 1.29 nM
binding result (481-660): no binding
binding result [3]: no binding
binding result [4]: no binding
binding result [5]: no binding
binding result [6]: no binding
binding result [7]: no binding
binding result (161-340): no binding
binding result (321-500 [13]): no binding
B5: CFA0675 (antibody, V domains shown)
VH: QSVEESGGRLVTPGTPLTLTCTVSGFSLSTYAMGWVRQAPGKGLEWIGTIDTGDNSFYANWAKGRFTISRTSTTVDLKITSPTAEDTATYFCARNDGSVYNLFNLWGPGTLVTVSS
VL: DVVMTQTPASVSAAVGGTVTIKCQASENIYSALSWYQQKPGLRPRLLIYYASTLASGVPSRFKGSRSGTEFTLTISDLECADAASYYCQQYYDINSVDNTFGGGTKVVVE
notes: Chimeric, rabbit V regions; also called CFA0675-F760G4
